From patent US20240016943
pIC50, pKd: −log10 of the molar value.

Experiments:
B6-Z4 = system: T1, B6-Z4; test: EMSA; settings: 95% CI 49-66
T1 sequence 1: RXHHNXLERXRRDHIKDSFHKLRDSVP
T1 sequence 2: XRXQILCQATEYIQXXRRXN

B11-Z70 = B11-Z70 (UniProt P61244); test: EMSA; settings: method inferred
B11-Z10 = B11-Z10 (UniProt P61244); test: EMSA; settings: method inferred
B2-Z = system: T2, B2-Z; test: EMSA; settings: apparent; Table 14 gives 15
T2 sequence 1: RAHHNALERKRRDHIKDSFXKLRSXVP
T2 sequence 2: XRAQILCKATEYIQYXRRK

[1] = system: T3, B1 (stapled MAX basic helix alone); test: EMSA; settings: stapled basic helix alone
T3 sequence: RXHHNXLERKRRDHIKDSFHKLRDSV

BLI2-ZL1 = BLI2-ZL1 (UniProt P61244); test: EMSA; settings: 500 nM sDBD
BLI2-Z [2] = test: EMSA; settings: 500 nM sDBD
B1-Z2 = system: T4, B1-Z2; test: EMSA; settings: 95% CI 22-29
T4 sequence 1: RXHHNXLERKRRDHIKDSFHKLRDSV
T4 sequence 2: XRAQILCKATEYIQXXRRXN

B11-ZM4 [3] = test: EMSA
BLI1-ZL1 [4] = target: T5, BLI1-ZL1 (UniProt P61244+P61244); test: EMSA; settings: 95% CI 14-35; Table 14 gives 19
B11-Z4 [5] = target: B11-Z4 (UniProt P61244); test: EMSA; settings: 95% CI 16-20; Table 14 gives 38
B2-Z2 = system: T6, B2-Z2; test: EMSA
T6 sequence 1: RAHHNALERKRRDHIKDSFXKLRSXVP
T6 sequence 2: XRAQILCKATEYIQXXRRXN

B7-Z4 = system: T7, B7-Z4; test: EMSA
T7 sequence 1: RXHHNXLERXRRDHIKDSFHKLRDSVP
T7 sequence 2: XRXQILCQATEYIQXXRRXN

B-ZM4 [6] = target: B-ZM4 (UniProt P61244); test: EMSA
B11-Z80 (STR1180) = B11-Z80 (STR1180) (UniProt P61244); test: EMSA; settings: method inferred
[7] = target: B-Z (MAX-derived STR, cross-dimer) (UniProt P61244); test: EMSA; settings: 95% CI 13-19; also 16 in Tables 12, 14; 20 mM HEPES pH 8.0, 150 mM NaCl, 2 mM MgCl2
B1-Z2 helical tetramer = system: T8, B1-Z2 helical tetramer; test: competition; settings: helical tetramer vs MAX
T8 sequence 1: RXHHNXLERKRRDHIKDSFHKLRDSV
T8 sequence 2: XAQILCKATEYIQXMRRXN

STR116 (B11-Z6) = STR116 (B11-Z6) (UniProt P61244); test: competition; settings: vs MAX/MAX 30 nM; Table 15 gives 65 for B11-Z6 (conflict); vs MYC/MAX 1.0 uM
BLI1s-Z = BLI1s-Z (UniProt P61244); test: competition; settings: MAX competition at 500 nM
BLI1-Z = BLI1-Z (UniProt P61244); test: competition; settings: vs MAX; 50% at 500 nM in Table 16
BMYC-Z = BMYC-Z (UniProt P61244); test: competition; settings: MAX competition at 500 nM
BMYCs-Z = BMYCs-Z (UniProt P61244); test: competition; settings: MAX competition at 500 nM
BLI1-ZM4 = BLI1-ZM4 (UniProt P61244); test: competition; settings: vs MAX
STR118 (B11-Z8) = STR118 (B11-Z8) (UniProt P61244); test: competition; settings: vs MAX/MAX 30 nM; Table 15 gives 79 for B11-Z8; vs MYC/MAX 170 nM
BMADs-Z = BMADs-Z (UniProt P61244); test: competition; settings: MAX competition at 500 nM
B12-Z6 = system: T9, B12-Z6; test: competition; settings: vs MAX
T9 sequence 1: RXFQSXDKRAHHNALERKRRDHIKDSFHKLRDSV
T9 sequence 2: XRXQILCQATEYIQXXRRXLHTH

B10-Z6 = B10-Z6 (UniProt P61244); test: competition; settings: vs MAX
BLI2-Z [8] = test: competition; settings: MAX competition at 500 nM
B11-ZM4 [9] = test: competition; settings: vs MAX
BLI1-ZL1 [10] = target: T5, BLI1-ZL1; test: competition; settings: vs MAX
B11-Z4 [11] = target: B11-Z4 (UniProt P61244); test: competition; settings: vs MAX
BMAD-Z = BMAD-Z (UniProt P61244); test: competition; settings: MAX competition at 500 nM
B-ZM4 [12] = target: B-ZM4 (UniProt P61244); test: competition; settings: MAX competition at 500 nM

**Q.** How did the pKd (B6-Z4) turn out when E-box probe was run?
**A.** Its pKd is 7.24.

**Q.** What about the pKd (B11-Z70) of the same substance?
**A.** Its pKd is 7.96.

**Q.** What about the pKd (B11-Z10) of the same substance?
**A.** The pKd was 8.32.

**Q.** And the pKd (B2-Z)?
**A.** The pKd was 7.72.

**Q.** What about the pKd [1] of the same substance?
**A.** Its pKd is < 5.70.

**Q.** And the binding signal (BLI2-ZL1)?
**A.** Its binding signal is 54 % bound.

**Q.** What about the binding signal (BLI2-Z [2]) of the same substance?
**A.** The binding signal was 72 % bound.

**Q.** What about the pKd (B1-Z2) of the same substance?
**A.** The pKd was 7.59.

**Q.** What about the pKd (B11-ZM4 [3]) of the same substance?
**A.** The pKd was 7.68.

**Q.** And the pKd (BLI1-ZL1 [4])?
**A.** The pKd was 7.60.

**Q.** And the pKd (B11-Z4 [5])?
**A.** The pKd was 7.74.

**Q.** What about the pKd (B2-Z2) of the same substance?
**A.** The pKd was 7.74.

**Q.** And the pKd (B7-Z4)?
**A.** The pKd was 6.63.

**Q.** What about the pKd (B-ZM4 [6]) of the same substance?
**A.** The pKd was 8.10.

**Q.** And the pKd (B11-Z80 (STR1180))?
**A.** The pKd was 8.57.

**Q.** What about the pKd [7] of the same substance?
**A.** Its pKd is 7.80.

**Q.** What about the pIC50 (B1-Z2 helical tetramer) of the same substance?
**A.** Its pIC50 is 5.96.

**Q.** And the pIC50 (STR116 (B11-Z6))?
**A.** The pIC50 was 6.40.

**Q.** And the activity (BLI1s-Z)?
**A.** The activity was 22%.

**Q.** And the pIC50 (BLI1-Z)?
**A.** Its pIC50 is 6.04.

**Q.** And the activity (BMYC-Z)?
**A.** Its activity is 9%.

**Q.** What about the activity (BMYCs-Z) of the same substance?
**A.** Its activity is 7%.

**Q.** And the pIC50 (BLI1-ZM4)?
**A.** The pIC50 was 6.25.

**Q.** What about the pIC50 (STR118 (B11-Z8)) of the same substance?
**A.** The pIC50 was 7.21.

**Q.** And the activity (BMADs-Z)?
**A.** Its activity is 24%.

**Q.** What about the pIC50 (B12-Z6) of the same substance?
**A.** Its pIC50 is 7.21.

**Q.** And the pIC50 (B10-Z6)?
**A.** The pIC50 was 6.49.

**Q.** And the activity (BLI2-Z [8])?
**A.** The activity was 16%.

**Q.** What about the pIC50 (B11-ZM4 [9]) of the same substance?
**A.** The pIC50 was 6.25.

**Q.** And the pIC50 (BLI1-ZL1 [10])?
**A.** The pIC50 was 6.03.

**Q.** And the pIC50 (B11-Z4 [11])?
**A.** The pIC50 was 6.30.

**Q.** What about the activity (BMAD-Z) of the same substance?
**A.** The activity was 66%.

**Q.** And the activity (B-ZM4 [12])?
**A.** Its activity is 41%.
